B1: ZC3H11A(wt)-HA [human] / PABPN1-Flag [not stated] (parent)
chain 1: MPNQGEDCYFFFYSTCTKGDSCPFRHCEAAIGNETVCTLWQEGRCFRQVCRFRHMEIDKKRSEIPCYWENQPTGCQKLNCAFHHNRGRYVDGLFLPPSKTVLPTVPESPEEEVKASQLSVQQNKLSVQSNPSPQLRSVMKVESSENVPSPTHPPVVINAADDDEDDDDQFSEEGDETKTPTLQPTPEVHNGLRVTSVRKPAVNIKQGECLNFGIKTLEEIKSKKMKEKSKKQGEGSSGVSSLLLHPEPVPGPEKENVRTVVRTVTLSTKQGEEPLVRLSLTERLGKRKFSAGGDSDPPLKRSLAQRLGKKVEAPETNIDKTPKKAQVSKSLKERLGMSADPDNEDATDKVNKVGEIHVKTLEEILLERASQKRGELQTKLKTEGPSKTDDSTSGARSSSTIRIKTFSEVLAEKKHRQQEAERQKSKKDTTCIKLKIDSEIKKTVVLPPIVASRGQSEEPAGKTKSMQEVHIKTLEEIKLEKALRVQQSSESSTSSPSQHEATPGARRLLRITKRTGMKEEKNLQEGNEVDSQSSIRTEAKEASGETTGVDITKIQVKRCETMREKHMQKQQEREKSVLTPLRGDVASCNTQVAEKPVLTAVPGITRHLTKRLPTKSSQKVEVETSGIGDSLLNVKCAAQTLEKRGKAKPKVNVKPSVVKVVSSPKLAPKRKAVEMHAAVIAAVKPLSSSSVLQEPPAKKAAVAVVPLVSEDKSVTVPEAENPRDSLVLPPTQSSSDSSPPEVSGPSSSQMSMKTRRLSSASTGKPPLSVEDDFEKLIWEISGGKLEAEIDLDPGKDEDDLLLELSEMIDS
chain 2: MAAAAAAAAAAGAAGGRGSGPGRRRHLVPGAGGEAGEGAPGGAGDYGNGLESEELEPEELLLEPEPEPEPEEEPPRPRAPPGAPGPGPGSGAPGSQEEEEEPGLVEGDPGDGAIEDPELEAIKARVREMEEEAEKLKELQNEVEKQMNMSPPPGNAGPVIMSIEEKMEADARSIYVGNVDYGATAEELEAHFHGCGSVNRVTILCDKFSGHPKGFAYIEFSDKESVRTSLALDESLFRGRQIKVIPKRTNRPGISTTDRGFPRARYRARTTNYNSSRSRFYSGFNSRPRGRVYRGRARATSWYSPY

Variants of: B1
Test: co-IP (PABPN1-Flag bait), Western blot quantification
Conditions: with PABPN1-Flag; three individual experiments; read off a plot

Q: With chain 1 C8A as the variant, how does the ratio to parent read?
A: Its ratio to parent is 0.24.

Q: Which ratio to parent does the source give for chain 1 C66A here?
A: The ratio to parent was 0.17.

Q: chain 1 C37A was tested. Which ratio to parent did it give?
A: The ratio to parent was 0.57.

— PMC10371797
